Laboratory results published in the RNAGym collection of RNA variant scans (doi:10.1073/pnas.2313332121).

B1: TPR t1 (parent)
chain: GACCAAUCUGCCCUCAGAGCUCGAGAACAUCUUCGGAUGCAGAGGAGGCAGGCUUCGGUGGCGCGAUAGCGCCAACGUCCUCAACCUCCAAUGCAUCCCACCACAUGAUGAUGCCUGAAGAGCCUUGGUUUUUUG

Variants of: B1
Assay: polymerase ribozyme fitness, log enrichment relative to wild type (log ratio); higher = more active; in vitro selection for triplet polymerase activity
Method in brief: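 Fitness measures genotype enrichment against wild-type enrichment on a logarithmic scale, with inverse-variance-weighted averaging of replicates. The logarithm is base 2, and genotypes were kept only with ≥10 input reads and ≥1 read per output in Illumina sequencing. The sequenced libraries came from one triplicate in vitro selection round, including frozen incubation at −7 °C, of PCR-built, transcribed mutant libraries of each subunit of a heterodimeric triplet polymerase ribozyme.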

In order of rising “polymerase ribozyme fitness (log ratio)” value:
1. GACCAAUCUGCCCUCAGAGCUCGAGAACAUCUUCGGAUGGAGAGGAGGCAGGCUUAGGUGGCGCGAUAGCGCCAACGUGCUCAACCUCCAAUGCAUCCCAUCACAUGAUAAUGCCUGAAGAGCCUUGGUUUUUUG [C40G C56A C79G C101U G110A]  -6.02
2. GACCAAUCUGCCCUCAGAGCUCGAGAACAUCUUCGGAUGGAGAGGAGGCAGGCUUCGGUGGCGCGAUAGCGCCAACGUCCUCAACCUCCAAUGCAUCCCUCCACAUGAUGAUGCCUGAAGAGCCUUGGUUUUGUG [C40G A100U U133G]  -4.07
3. GACCAAUCUGCCCUCAGAGCUCGAGAACAUCUUCGGAUGGAGAGGAGGCAGGGUUCGGUGGCGCGAUAGCGCCAACAUCCUCAACCUCCAAUGCAUCCCACCACACGAUGAUGCCCGAAGAGCCUUGGUUUUUUG [C40G C53G G77A U106C U116C]  -3.58
4. GACCAAUCUGCCCUCAGAGCUCGAGAACAUCUUCGGAUGGAGAGGAGGCAGGCUUCGGUGGCGCGAUAGCGCCAACGUCCUCAACCUCCAAUGCAUCCCACAACAUGAUGAUGCCUGUAGAGCCUUGGUUUUUUG [C40G C102A A118U]  -2.92
5. GACCAAUCUGCCCUCAGAGCUCGAGAACAUCUUCGGAUGGAGAGGAGGCAGGCUUCGGUGGCGCGAUAGCGCCAACGUCCUCAACCUCGAAUGCAUCCCACCACAUGAUGAUGCCUGAAGAGCCUUGGUUUUUUG [C40G C89G]  -2.85
6. GACCAAUCUGCCCUCAGAGCUCGAGAACAUCUUCGGAUGGAGUGGAGGCAGGCGUCGGUGGCGCGAUAGCGCCAACGUCCUCAACCUCCAAUGCAUCCCACCACAUGAUGAUGCCUGAAGAGCCUUGGUUUUUUG [C40G A43U U54G]  -2.72
7. GACCAAUCUGCCCUCAGAGCUCGAGAACAUCUUCGGAUGGAGAGGAGGCAGGCUUUGGUGGCGCGAUAGCGCCAACGUCCUCAACCUUCAAUGCAUCCCACCACAUGAUGAUGCCUGAAGAUCCUUGGUUUUUUG [C40G C56U C88U G122U]  -2.63
8. GACCAAUCUGCCCUCAGAGCUCGAGAACAUCUUCGGAUGGAGAGGAGGCAGGCUUCGGUGGCGCGAUAGCGCCAACGUCCUCAACCUCGAAUACAUCCCACCACAUGAUGAUGCCUGAAGAGCCUUGGUUUUUUG [C40G C89G G93A]  -2.6
9. GACCAAUCUGCCCUCAGAGCUCGAGAACAUCUUCGGAUGGAGAGGAGGCAGGCUUCGGUGGCGCGAUAGCGCCAACGUACUCAACCUCCAAUGCAUCCCACCACAUGAUGAUGCCUGAAGAGCCUUGGUUUUUUG [C40G C79A]  -2.58
10. GACCAAUCUGCCCUCAGAGCUCGAGAACAUCUUCGGAUGGAGAGGAGGCUGGCUUCGGUGACGCGAUAGCGCCAACGUUCUCAAGCUCCAAUGCAUCCCACCACAUGAUGAUGCCUUAAGUGCCUUGGUUUUUAG [C40G A50U G61A C79U C85G G117U A121U U134A]  -2.53
11. GACCAAUCUGCCCUCAGAGCUCGAGAACAUCUUCGGAUGGAGAGGAGGAAGGCUUCGGUGGCGCGAUAGCGCCAACAUCCUCAACCUCCAAUGCAUCCCACCACAUGAUGAUGCAUGAAGAGCCUUGGUUUUUUG [C40G C49A G77A C115A]  -2.4
12. GACCAAUCUGCCCUCAGAGCUCGAGAACAUCUUCGGAUGGAGAGGAGGCAGGCUUCGGUGGCGCGAUAGCGCCAACGUCCUCAACCUCCAAUGCAUCCCACCAAAUGAUGAUGCCUGAAGAGCCUUGGUUUUUUG [C40G C104A]  -2.31
13. GACCAAUCUGCCCUCAGAGCUCGAGAACAUCUUCGGAUGGAGAGGAGGCAGGCUUCGGUGGCGCGAUAGCGCCAUCGUCCUCAACCUCCAAUGCAUCCCACCACAUGAUGAUGCCUGAAGAGCCUUAGUUUUUUG [C40G A75U G127A]  -2.31
14. GACCAAUCUGCCCUCAGAGCUCGAGAACAUCUUCGGAUGGAGAGGAGGCAGGCUUCGGUGGCGCGAUAGCGGCAACGUCCUUAACCUCCAAUGCAUCCCACCACAAGAUGAUGCCUGAAGAGCCUUGGUUUUUUG [C40G C72G C82U U106A]  -2.01
15. GACCAAUCUGCCCUCAGAGCUCGAGAACAUCUUCGGAUGGAGAGGAGGCAGGCUUAGGUGGCGCGAUAGCGCCAACGUCCUCAACUUCCAAUGCAUCCCACCACAUGAUGAUGCCUGAAGAGCCUUGGUUUUUUG [C40G C56A C86U]  -1.71
16. GACCAAUCUGCCCUCAGAGCUCGAGAACAUCUUCGGAUGGAGAGGAGGCAGGCUUCGGUGGCGCGAUAGUGCCAACGUCCUCAACCUCCAAUGCAUCCCACCACAUGAUGAUGCCUGAAGAGCCUUGGUUUUUUG [C40G C70U]  -1.65
17. GACCAAUCUGCCCUCAGAGCUCGAGAACAUCUUCGGAUGGAGAGGGGGCAGGCUUCGGUGGCGUGAUAGCGCCAACGUCCUCAACCUCCAAUGCAUCCCACCACAUGAUGAUGCCUGAAGAGCCUUGGUUUUUUG [C40G A46G C64U]  -1.62
18. GACCAAUCUGCCCUCAGAGCUCGAGAACAUCUUCGGAUGGAGAGGAGGCAGGCUUCGGUGGUGCGAUAGCGCCAACGUCCUCAACCGCCAAUGCAUCCCACCACAUGAUGAUGCCUGAAGAGCCUUGGUUUUUUG [C40G C62U U87G]  -1.61
19. GACCAAUCUGCCCUCAGAGCUCGAGAACAUCUUCGGAUGGAGAGGAGGCAGGCUUCGGUGGCGCGAUAGCGCCAACGUCCUCAUCCUCCAAUGCAUCCCACCACAUGAUGAUGCCUGAAGAGCCUUGGUUUUUUG [C40G A84U]  -1.56
20. GACCAAUCUGCCCUCAGAGCUCGAGAACAUCUUCGGAUGGAGAGGAGGCAGGCUUGGGUGGCGCGAUAGCGCCAACGUCCUCAACCUCCAAUGCAUCCCACCACAUGAUGAUGCCUGAAGAGCCUUGGUUUUUUG [C40G C56G]  -1.42
21. GACCAAUCUGCCCUCAGAGCUCGAGAACAUCUUCGGAUGGAGAGGAGGCAGGCUUCGGUGGCGCGAUAGCGCCAACGUUCUCAACCUCCAAUGCAUCCCACCACAUGAUGAUGCCUGAAGAGCCUUGGUUUUUUG [C40G C79U]  -1.27
